Assay results reported in patent publication US20040248202A1, “Bacteriorhodopsin/G protein-coupled receptor chimeras” (Wisconsin Alumni Research Foundation, priority 1998, published 2004).

Key:
transducin = transducin (Homo sapiens, UniProt P11488); assay: GTPyS exchange assay in the presence of high affinity analog or random peptide; format: biochemical; settings: for % Inhibition of GTPγS Uptake (Controlled for Peptide inhibition of Basal Exchange): 3C; for % Inhibition of GTPγS Uptake (Controlled for Peptide inhibition of Basal Exchange) / Specific counts (Lattice Form) / SPECIFIC COUNTS: (Lattice Form): 10 Minutes
Experimental: (§1) Chimeric or bacteriorhodopsin protein (1.7 uM) was incubated with 0.8 uM holotransducin with 10 nM ^35S radiolabeled GTPyS in buffer (20 mM Hepes (pH 7.5), 5 mM MgCl2, 1 mM DTT, 0.1 mM EDTA, and 20 mM NaCl). The reaction was incubated at 30° C. for 5, 10, 15 or 30 minutes. The reaction was terminated by transferring aliquots of the reaction mixture to nitrocellulose filters (0.45 um) prewetted with wash buffer (10 mM Tris (pH 7.5), 5 mM MgCl2, 100 mM NaC1, 0.1 mM EDTA) and placed on a vacuum manifold. The filters were then washed with 8 ml of wash buffer. The filters were then placed overnight in scintillation vials filled with 20 ml of scintillation cocktail. The activity of the vials was counted by a Liquid Scintillation Counter. For the BR-Rhodopsin loop 3 chimeras, in which the rhodopsin intracellular loop 3 replaced the native BR intracellular loop 3 and was fused from T157 on BR TM 5 to V167 on BR TM 6, activity was determined by an increased uptake of GTPS over basal exchange by transducin alone.
The high affinity analog has the sequence V-L-E-D-L-K-S-C-G-L-F-G (SEQ ID NO:43) (J. Biol. Chem. 271 pp. 361-366, 1996).
The random peptide consists of the sequence S-S-V-F-L-V-V-D-R-S-R (SEQ ID NO:44).
The addition of the high affinity analog at a final concentration of 8 uM gave the following results.
The second inhibition experiment used 50 uM of the high affinity analog.

holotransducin = holotransducin (Homo sapiens, UniProt P11488); assay: Effects of GDP concentration on the basal exchange of GTPγS by holotransducin; format: biochemical; settings: 10 Minutes
Experimental: as §1
The next set of experiments was designed to measure the effects of GDP concentration on the basal exchange of GTPγS by holotransducin.

[1] = Basal Exchange (no chimera) + 8 uM peptide

Chain of holotransducin (P11488 2-350 limits assumed): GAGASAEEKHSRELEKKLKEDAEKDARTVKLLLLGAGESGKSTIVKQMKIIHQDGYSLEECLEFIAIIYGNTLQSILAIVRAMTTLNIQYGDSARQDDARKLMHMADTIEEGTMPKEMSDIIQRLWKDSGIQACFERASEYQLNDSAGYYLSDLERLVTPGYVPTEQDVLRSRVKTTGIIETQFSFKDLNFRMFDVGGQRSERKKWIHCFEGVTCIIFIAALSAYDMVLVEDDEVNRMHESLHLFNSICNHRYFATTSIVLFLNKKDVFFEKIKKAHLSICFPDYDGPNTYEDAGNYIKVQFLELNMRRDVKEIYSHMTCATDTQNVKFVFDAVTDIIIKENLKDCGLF
Chain of holotransducin (P62873 2-340 partner limits assumed): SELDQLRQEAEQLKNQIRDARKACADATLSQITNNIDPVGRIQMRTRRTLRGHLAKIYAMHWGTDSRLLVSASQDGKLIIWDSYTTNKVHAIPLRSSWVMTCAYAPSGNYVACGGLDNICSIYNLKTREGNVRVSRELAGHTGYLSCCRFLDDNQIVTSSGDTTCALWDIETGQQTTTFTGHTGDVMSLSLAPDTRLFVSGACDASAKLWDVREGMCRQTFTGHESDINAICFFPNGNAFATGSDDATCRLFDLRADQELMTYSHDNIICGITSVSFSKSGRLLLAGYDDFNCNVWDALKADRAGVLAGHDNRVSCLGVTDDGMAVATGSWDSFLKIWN
Chain of holotransducin (P63211 2-71 partner limits assumed): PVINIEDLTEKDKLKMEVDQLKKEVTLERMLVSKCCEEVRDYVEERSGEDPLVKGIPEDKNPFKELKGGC
Chain of transducin (P11488 2-350 limits assumed): as the sequence (P11488 2-350 limits assumed) above
Chain of transducin (P62873 2-340 partner limits assumed): as the sequence (P62873 2-340 partner limits assumed) above
Chain of transducin (P63211 2-71 partner limits assumed): as the sequence (P63211 2-71 partner limits assumed) above

Specific counts (Lattice Form) (holotransducin; Basal Exchange + 10 uM GDP) [counts]	Specific counts (Lattice Form) (holotransducin; Basal Exchange + 50 uM GDP) [counts]	Specific counts (Lattice Form) (holotransducin; Basal Exchange + 100 uM GDP) [counts]	Compound	% Inhibition of GTPγS Uptake (Controlled for Peptide inhibition of Basal Exchange) (transducin; 8 uM peptide) [%]	% Inhibition of GTPγS Uptake (Controlled for Peptide inhibition of Basal Exchange) (transducin; 50 uM peptide) [%]	Specific counts (Lattice Form) (transducin; 3C + 8 uM peptide) [counts]	SPECIFIC COUNTS: (Lattice Form) (transducin; 3C + 50 uM peptide) [counts]	Specific counts (Lattice Form) (transducin; [1]) [counts]	SPECIFIC COUNTS: (Lattice Form) (transducin; Basal Exchange (no chimera) + 50 uM peptide) [counts]	Effect on chimera-enhanced GTP-GDP exchange (transducin; presence of peptide)
–	–	–	S-S-V-F-L-V-V-D-R-S-R (SSVFLVVDRSR) [Random peptide]	5.8	30	47516	35568	23868	–	–
22885	11061	7502	Nc1nc2c(ncn2[C@@H]2O[C@H](COP(=O)(O)OP(=O)(O)O)[C@@H](O)[C@H]2O)c(=O)[nH]1 [GDP]	–	–	–	–	–	–	–
–	–	–	V-L-E-D-L-K-S-C-G-L-F-G (VLEDLKSCGLFG) [High affinity analog]	23	70	42455	46892	23154	33888	inhibited
